Source: the supplement of paper PMC9170038

Test system: MS2 coat protein
Assay: apparent KD of MS2 coat protein; designed switch direction (-1 OFF switch, 1 ON switch): -1; higher = weaker reporter binding
Method in brief: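 Designed RNA switches sharing common flanks were transcribed on Illumina chips by stalled E. coli RNA polymerase. They were titrated with SNAP-549-labelled MS2 coat protein, from 0.7 or 1.5 nM doubling to 3 µM, in Tris-HCl pH 7.5 buffer with KCl, MgCl2, BSA, DTT, tRNA and Tween-20. Titrations ran without input, with 200 uM small-molecule ligand, or with an oligonucleotide input. The apparent KD of each design is the median over its clusters, after curve-fitting of normalised cluster fluorescence.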

[1] = Eterna round: R95, input ligand: microRNA oligo, concentration not stated
[2] = Eterna round: R95, input ligand: FMN 200 uM
[3] = Eterna round: R95, input ligand: none
[4] = input ligand: microRNA oligo, concentration not stated

## CCAGCAAAUGUAAGGAUAUGCUGGUCCUUGGAUCAGCAGAAGGUACAUGAGGAUCACCCAUGUGUGAAAGCUGG [Eli bmx4 4.57] (Eterna round: R97, puzzle: Brourd's mod of Exclusion 4)
Input ligand: FMN 200 uM
  apparent KD of MS2 coat protein: 0.674 µM
Input ligand: none
  apparent KD of MS2 coat protein: 0.166 µM

## UACCCUAAGGUGAGGAUAUCUAGGCCUAGAGGUCAAGAGAAGGCACAUGAGGAUCACCCAUGUAGUUGAUACGA [BmEX4 B.25] (Eterna round: R97, puzzle: Brourd's mod of Exclusion 4)
Input ligand: FMN 200 uM
  apparent KD of MS2 coat protein: 0.0774 µM
Input ligand: none
  apparent KD of MS2 coat protein: 0.0219 µM

## GGUGCGUAUGUGAGGAUAUGCUGGUCCUUGGAUCGGCAGAAGGUACAUGAGGAUCACCCAUGUGGUGUCGUUCU [salish99_Bmod_ex4_105] (puzzle: Brourd's mod of Exclusion 4)
[1]
  apparent KD of MS2 coat protein: 0.232 µM

## CCGAGGUGGCGGUCCUAUGACAUGAGGAUCACCCAUGUACCUCGCCACAAGCUUUUUGCUCAUCUUAUAAUUCUCGG [Gelelebius] (puzzle: Sensor v3, turn-off variant 1)
[2]
  apparent KD of MS2 coat protein: 0.018 µM
[1]
  apparent KD of MS2 coat protein: 0.117 µM
[3]
  apparent KD of MS2 coat protein: 0.0161 µM

## UCUAACCAUGUAGGAUAUGCGUGGCUAAGCUAUGCAGAAGGACAUGAGGAUCACCCAUGUGCCUCCGUCUGCGUACAGUCGGCU [EXclNG1-LROPPY01] (Eterna round: R96, puzzle: Exclusion NG 1)
Input ligand: FMN 200 uM
  apparent KD of MS2 coat protein: 0.0155 µM
[4]
  apparent KD of MS2 coat protein: 0.0112 µM
Input ligand: none
  apparent KD of MS2 coat protein: 0.0185 µM

## UAAUAAAGUGUGAGGAUAUGCUGGUCGAUAGAUCAGCAGAAGGCACAUGAGGAUCACCCAUGUAAUAUAUUUUA [Mat - Exclusion 4 - JL Mod - D46] (puzzle: Brourd's mod of Exclusion 4)
[1]
  apparent KD of MS2 coat protein: 0.0543 µM

## ACGAUGACCGAAAAGUGUUAACUGACAUGAGGAUCACCCAUGUAGGAUAUGGCUACGAAAAGUAGUCAGAAGGACAUGUCAUCA [Omei Exc(NG) 3 Av7] (Eterna round: R96, puzzle: Exclusion NG 3)
Input ligand: FMN 200 uM
  apparent KD of MS2 coat protein: 0.0178 µM
[4]
  apparent KD of MS2 coat protein: 0.0131 µM
Input ligand: none
  apparent KD of MS2 coat protein: 0.0175 µM

## GGAAAGGUAGGAUAUACGAAGAAAAAGGGUAGAAGAAUAACACAUGAGGAUCACCCAUGUAGAAGGACCAAAGC [Mat - Exclusion 2 - Mod of my Tesla design - D14] (puzzle: Exclusion 2)
[2]
  apparent KD of MS2 coat protein: 0.0968 µM
[1]
  apparent KD of MS2 coat protein: 0.0251 µM
[3]
  apparent KD of MS2 coat protein: 0.0258 µM

## UUUCGGCAUGUAGGAUAUGGAUCCGAUUAGGAUUUAGAAGGACAUGAGGAUCACCCAUGUGCAUUUAAUUGGUCAUUACCGUUU [EXclNG1-LROPPY08] (Eterna round: R96, puzzle: Exclusion NG 1)
[4]
  apparent KD of MS2 coat protein: 0.0419 µM

## ACAUGAGGAUCACCCAUGUACAGGGUGUAGUUUCAUUGUUUGAAGGAUAUACUUAGUUAGUUGUUGUAGAAGGUCAUAUUUCAU [JR_ExcNG3_Sub001] (Eterna round: R96, puzzle: Exclusion NG 3)
Input ligand: FMN 200 uM
  apparent KD of MS2 coat protein: 0.126 µM
[4]
  apparent KD of MS2 coat protein: 0.5 µM
Input ligand: none
  apparent KD of MS2 coat protein: 1.04 µM

## GAAAAUGUGGAGGAUAUCGACUUCGAAAGAAGUCGAGAAGGCCACACAUGAGGAUCACCCAUGUGUGCCUUAAA [Omei Ex6 H3] (Eterna round: R97, puzzle: Exclusion 6)
Input ligand: FMN 200 uM
  apparent KD of MS2 coat protein: 0.0239 µM
Input ligand: none
  apparent KD of MS2 coat protein: 0.012 µM

## CUCGUGCAGCUUUGCUGUACGAGUACAUGAGGAUCACCCAUGUAGGAUAUGGUACGCUUUGCGUGCUAGAAGGAUAUGUGUAGG [JL EXNG3 1.38] (Eterna round: R96, puzzle: Exclusion NG 3)
Input ligand: FMN 200 uM
  apparent KD of MS2 coat protein: 0.0441 µM
[4]
  apparent KD of MS2 coat protein: 0.0184 µM
Input ligand: none
  apparent KD of MS2 coat protein: 0.0313 µM

## CAUGGCUACUAGGAUAUGUCGCGAUGGACGCAAACAGAAGGAGUAACAUGAGGAUCACCCAUGUUGUGACCUAA [Mabiaris] (Eterna round: R97, puzzle: Exclusion 6)
Input ligand: FMN 200 uM
  apparent KD of MS2 coat protein: 0.2 µM
Input ligand: none
  apparent KD of MS2 coat protein: 0.0289 µM

## CGAUGCUCGAGUCCACAUGAGGAUCACCCAUGUCGAGUUAGCGAGGAUAUCGGAGACACAUAGUAUGAGAAGGCGCGAACCUGA [Ex NG3 #20] (Eterna round: R96, puzzle: Exclusion NG 3)
Input ligand: FMN 200 uM
  apparent KD of MS2 coat protein: 0.01 µM
[4]
  apparent KD of MS2 coat protein: 0.0113 µM
Input ligand: none
  apparent KD of MS2 coat protein: 0.0136 µM

## ACUGGUCAUGAGGAUAUGCGCCAGAACGCCGGCGUAGAAGGCGUGACAUGAGGAUCACCCAUGUCAGUUCGCGA [eternacac ex6r4 sub30] (Eterna round: R97, puzzle: Exclusion 6)
Input ligand: FMN 200 uM
  apparent KD of MS2 coat protein: 0.0391 µM
Input ligand: none
  apparent KD of MS2 coat protein: 0.0396 µM

## UAAGUGUCAGGAUAUACAUGAGGAUCACCCAUGUGCCUCGCUACGGCCAGGCUCCCGUGUAGAAGGGAUCGUAA [Eternabot (Original) Solution 23] (Eterna round: R97, puzzle: Exclusion 3)
Input ligand: FMN 200 uM
  apparent KD of MS2 coat protein: 0.11 µM
Input ligand: none
  apparent KD of MS2 coat protein: 0.0618 µM

## CUUUAGUAAGGAUAUCAGCUUAGGAGGUUGGUAAUGAGAGCUGAGAAGGUACAUGAGGAUCACCCAUGUUAGUU [JL Zatite mod 9] (puzzle: Exclusion 4)
[1]
  apparent KD of MS2 coat protein: 0.0171 µM

## UACGUGUCAGGAUAUGCGUUGGUACAGAAGUAUGGCCAACGGCAGAAGGGACAUGAGGAUCACCCAUGUCGUCG [Eternabot (L1) Solution 60] (Eterna round: R97, puzzle: Exclusion 4)
Input ligand: FMN 200 uM
  apparent KD of MS2 coat protein: 0.139 µM
Input ligand: none
  apparent KD of MS2 coat protein: 0.0268 µM

## CAGGAUAGAGGAUAUACAUAGAUACAGAUUCGUGUGAUCCUACAUGAGGAUCACCCAUGUAGAAGGCUAUCCUG [Fiskers Ex 2 - 23] (puzzle: Exclusion 2)
[1]
  apparent KD of MS2 coat protein: 0.21 µM

## AUUGGGCAAGCAUGAUCCCACAUGAGGAUCACCCAUGUGUUCGUCUUAUAGGCUGCUGAGGCUUUUGCCUCGGUGGC [LRO Sensor-off var1-02 loose mod of D91 from Mat747] (Eterna round: R97, puzzle: Sensor, turn-off variant 1)
Input ligand: FMN 200 uM
  apparent KD of MS2 coat protein: 0.706 µM
Input ligand: none
  apparent KD of MS2 coat protein: 0.875 µM

## AGAUGCUCAAGUCGACAUGAGGAUCACCCAUGUACAGUUAAUGAGGAUAUCCGAGAUAAAUAAUAGGAGAAGGCGUGAUCAUGA [Ex NG3 #7] (Eterna round: R96, puzzle: Exclusion NG 3)
Input ligand: FMN 200 uM
  apparent KD of MS2 coat protein: 0.284 µM
[4]
  apparent KD of MS2 coat protein: 0.383 µM
Input ligand: none
  apparent KD of MS2 coat protein: 0.458 µM

## GUCUACCAGCUAGGAUAUGCAGUACAUUAAAAUGUAGAAGGAGCACGAUCCAGACAUGAGGAUCACCCAUGUGGGCGGUAGGCA [Aques] (Eterna round: R96, puzzle: Exclusion NG 1)
[4]
  apparent KD of MS2 coat protein: 0.0156 µM

## ACAUGAGGAUCACCCAUGUACAGGGUUUAGUUUCAUCGUUUGAAGGAUAUACUCCGUUAGUUGUUGUAGAAGGUCACAUUUUGG [JR_ExcNG3_Sub005] (Eterna round: R96, puzzle: Exclusion NG 3)
Input ligand: FMN 200 uM
  apparent KD of MS2 coat protein: 0.167 µM
[4]
  apparent KD of MS2 coat protein: 0.0892 µM
Input ligand: none
  apparent KD of MS2 coat protein: 0.142 µM

## GGUGGACAUGAGGAUCACCCAUGUGAGGAUAUCGGCCGGUUCGUGGUGGCUGGCGUCUCGAGAAGGCGCAUAGU [Exclusion 1 V70] (puzzle: Exclusion 1)
[1]
  apparent KD of MS2 coat protein: 0.0286 µM

## UAAAACCUAGGAUAUACAUGAGGAUCACCCAUGUUCGAAGGAGCCCAAGUGACUUCUAGUAGAAGGAGGGCGAA [Aratisedso] (puzzle: Exclusion 3)
[1]
  apparent KD of MS2 coat protein: 0.0188 µM

## AAGAAGGCAGGAUAUACAAAAUAAAAGAAAAGAAAGAAAGAACAUGAGGAUCACCCAUGUAGAAGGGUCAAGAA [Sankhenre Sewadjtu] (Eterna round: R96, puzzle: Exclusion 2)
Input ligand: FMN 200 uM
  apparent KD of MS2 coat protein: 0.0522 µM
[4]
  apparent KD of MS2 coat protein: 0.0463 µM
Input ligand: none
  apparent KD of MS2 coat protein: 0.0607 µM
